Results taken from patent US20040198648A1.

Molecular target: human insulin receptor (IR), overexpressed in rat fibroblasts (HIRc B cells) (human) (UniProt P06213)
Experiment: cell-based or functional assay

recombinant human AHSG (α2-Heremans Schmid Glycoprotein) (from UniProt P02765 19-367)
insulin-induced IR autophosphorylation in intact HIRc B cells, rhAHSG at 1.8 µM: > 50%
